The DeepSol protein solubility set

Test: soluble on expression in E. coli; label from the status in PepcDB or PDB records

Row | Sequence | soluble on expression in E. coli
1 | MAHHHHHHMIAAIKTPAFQERVRAAMSREPTPADAEAVMKRYEEVQADYFTNHYNAEAGGICSSASAGAESRGTGGAGGRAKSSQDASEALAQQVDDMNLQEASDAPKLDGVEIVEQLKNAVRVYKEKETVRLITELCLLIESQVTALPATVPALRHLYSNSVYGSSAMEHAQAASAQAGGGESVLPVAQPSPQVMSMMGMAMRTLNPRQRETLERVQRAMMNGSPPLPEDMQDMLLIQRQLGAFMQTMQRFGQMPSGRGCGSGGRGGCGGQGGQ | soluble
2 | MADGLRVALVAGEASGDILGSGLMQALRARHPDIEFIGVGGPRMEAEGLSSYFPMERLSVMGLVEVLGRLPELLRRRKRLIRTLIEARPDVMIGIDAPDFTLGVEHKLRQAGLRTVHYVSPSVWAWRQKRVLKIREACDLMLALFPFEARFYEEHGVPVRFVGHPLANTIPLQADRAAARARLGLPADGQVLALMPGSRGGEVGKLGALFLDTAQRLLVERPGLRFVLPCASAARREQIEQMLQGREPLPLTLLDGASHEALAACDAVLIASGTATLEALLYKRPMVVAYRVAGLTYRILKRLVKSPYISLPNLLAGRLLVPELIQDAATPQALAATLSPLLDDGSQQVEFFDAIHRALRQDASAQAA | not soluble
3 | MGVTLAKGGNVSLSKAAPNLTQVMIGLGWDARSTTGAPFDLDASALLCREGRVLGDEWFVFYNQLKSPDGSVEHTGDNLTGEGEGDDESILVDLSTVPAQVDKIVFPVSIHEADNRGQTFGQVSNAFIRVVNQADGQELARYDLSEDASTETAMIFGEVYRYGGEWKFRAVGQGYASGLRGIVQDFGVSVS | not soluble
4 | MGSDKIHHHHHHMHEVVQDYYGKQLQSTEDLKTSACCDVSNMPSWLKPLLANIHDEVLSRYYGCGLVCPALLEGCRILDLGCGSGRDVYALAQLVGSTGHVVGVDMTDEQLAIAKQHQDYHVDKFGYDNVTFLKGYIEKLDELNLDPNSFDIIVSNCVINLSPDKAAVMASVQRLLKPGGEFYFSDVYADRRIPQQLINDPVLYGECLSGALYWKDFERLARHADFLDPRLVEDRPLEITDPLLAAKIGDIQFFSATYRLFKIATLEDACEDHGQAVIYRGTIDQLPHHFNLDKHHAIETGRVFPVCGNTFRMLKESRFAKHFDFIGDDSRHYGIFAGCGDILPFGNQANIVSDSNVGQSVNSGSCC | not soluble
5 | MADRIELRGLTVHGRHGVYDHERVAGQRFVIDVTVWIDLAEAANSDDLADTYDYVRLASRAAEIVAGPPRKLIETVGAEIADHVMDDQRVHAVEVAVHKPQAPIPQTFDDVAVVIRRSRRGGRGWVVPAGGAV | soluble
6 | MEIPVIEPLFTKVTEDIPGAAGPVFDKNGDFYIVAPYVEVNGKPAGEILRIDLKTGKKTVICKPEVNGYGGIPIGCQCDRDANQLFVADMRLGLLVVQTDGTFEEIAKKDSEGRRMQGCAYCAFDYEGNLWITAPAGEVAPADFTISLQEKFGSIYCFTTDGQMIQVDTAFQAPAGIAVRHMNDGRPYQLIVAEQPTKKLWSYDIKGPAKIENKKVWGHIPGTHKGGAAGMDFDEDNNLLVANWGSSHIEVFGPDGGQPKMRIRCPFEKPSALHFKPQTKTIFVTEHENNAVWKFEWQRNGKKQYCETLKFGIFGSLEHHHHHH | soluble
7 | FGDFNYNTTFTATTNKNKIIQLARDVLNPVTNTLIDLTDIQVGRFRLREGGEIGTVYANEWLKRDGDNYIDYQPGQALTTETTSPYKLGSVNPKWNLGWQHGFSYKGFNLNLLFTARIGGIAISKTQAMLDRYGVSEASADARDAGGVSLGYFKVDPKTYYDAVSNLDAYYTYSATNVRLQEARLTYTFPNKWFKGTVNNLSLSVYGTNLWMIYNKAPYDPELTASTGTFGQGYDYFMLPSQSTYGLSLKFGF | not soluble
8 | MGSDKIHHHHHHMTYAVGDIHGCFYALKSLLEKLPLSEEDELIFMGDYVDRGPNSREVIEFLIELSKHHRCIFLRGNHEEMLLNCVKNGSDCDLWFFNGARSTVESFGGVEEIKKFLPFFENTVYHYEKENYVFVHGGVRPGVSLEDQDPFDLVWIRDEFIYSENPLPGKIVVFGHTPFEEPFVSRDKIGIDTGCVYGGRLTALRVEDRKFFQVECANRRW | not soluble
9 | ELEPGAFSELYQRYRHCDAPICLYEQGRDSFEDEGRWRLILCATCGSHGTHRDCSSLRPNSKKWECNECLPA | soluble
10 | MNFAQVKDYLVDLQNRIVTGLEQVDGQSFRRDTWDRPEGGGGTSCVIEEGNVLERGGVNFSHVFGKGLPASATAARPELAGRAFEAAGVSLVLHPRNPYAPTVHMNVRFFAATKEGAEPVWWFGGGMDLTPYYGFEEDAVHFHQACKDALQPSGEEYYPRFKKWCDEYFYLKHRKEPRGIGGVFFDDLNQPDFATCFNLTRSVGDHFLAAYVPILQKRRDLPYGERERDFQAYRRGRYVEFNLVWDRGTLFGLQSGGRTESILMSLPPVVKWRYDWSPAAGSPEAKLYTDFLTGRDWLPLGLEHHHHHH | soluble
11 | GPGSMQSASSRVPRKPAAASNLGKPSSSGRFTKPNRPQPTSSFSKTAQPDMTGRYGTSTALVASTAASHFTAGARGQSTPFVGLADRTGQEGSVFGLRAPQNDATGAAAHTKTRQAARTKVVDDASTPVVVVGPERDSVPFRLCCEALAEGCVQTYMHLFELAHRDPVCVDTLSRKFFNVPDDRLAWVQQQLSAVEVLRRQSEFEQVFTHCEQLANYFEKEGDYAEAAWYHEMVLHYMMESLDRTLEQRARHVYATFQERQGHLEEAAALYDAMYRLAVALRDEATLQDASCCLVRVHQALGETLKFSDPAAAARHYATAAEAAVRSKNVVDEGSAYSALGDVSEARGDLPLALKYQRSCRAVAQQNDLKPQECRATLRVADLEERLGLKLEASTTLHEALQLAKELGAPRQLCIATMQLGEAYRSRNQEGEALQCFDESFAAAVEAGDQELIDTVRIAMGFARGDYYLTHAYGGKGYLHLVYTDIRAQLAWMSGGTL | not soluble
12 | MSLNHLNDKVNEIKDNFYGLIGHAYLEKYITKPIVDEDKLRFLYTMLAEKLPKKDTKLFTLSALLVDAALEIHEAVSLHNIQTDPIKKNRQLNVLAGDYYSSLYYYLLADSRHLPIIQVFSHSIQEINEYKMKLYDGKNIDFDEVKNNVDKVDTFLLQNLAEHFQLTTWKKAISVFFHLKRLVHEREAWINGKATPLMKAIVTELFGSNRPVDELKKDDQLQVLELWEEKVEEGKDHLLEHVKALLPKFERFFVDHLNDLFGPDYIHEKVAEEGEGHHHHHH | soluble
13 | PFEPKIVAFVCTYCTYAGADLAGTSRLNYAPNVRIVRLPCTGRISPMFILKALQKGADSVLVSGCHPGDCHFTAGNYHARRRWTVFRALLSFTGIPEERIRFSWISAAEGAKFAELINEITDDTRKLG | not soluble
14 | MKVFTFLLIIMVCLYNFGVRAAMDNSKHSDEAEKLLAELSARKGEGEGEGEGEGEGEGEGEPKSTVSVFYLQPEEVNTLSHQAKRGDGEAGFRLFLYYKLSNYDEEKSSQWLKIAANNGHATAQYRLYVELQEQGETKEANEWLQKIKLAASNNDSSAIWFLVNCYKNQGNKKEALQWAYKLKASKQPLDADRLIEELTKEQK | soluble
15 | ADQLLRKKRRIFIHSVGAGTINALLDCLLEDEVISQEDMNKVRDENDTVMDKARVLIDLVTGKGPKSCCKFIKHLCEEDPQLASKMGLH | soluble
16 | MGLSVMIMLMRSVKIKYLNLASLSNDRSADTSAAPHSPLRTRLVHPSLAFCPDVPSGKCRFAKFYGIGREPHRIRGADVLLFEGLKRVR | not soluble
17 | MIEEPVDDVIKHGPKTGTPETKTVEIPFETKREFNPKLQPGEERVKQEGQPGSKTITTPITVNPLTGEKVGEGQPTEEITKQPVDKIVEFGGEKPKDPKGPENPEKPSRPTHPSGPVNPNNPGLSKDRAKPNGPVHSMDKNDKVKKSKIAKESVANQEKKRAELPKTGLESTQKGLIFSSIIGIAGLMLLARRRKN | not soluble
18 | MSDEESFVILGSSPCSSLMPDSSLRSDVCGNAQEAKETVASTSTQPPTVNCIPVSITASQQQHKSLDSGSSQQQSLATSFIMGEIQSDVLKNSVYSQFPSLCSLQGSAEEVVKLQNMMTEYLALKSQPNHAELPQPDSTMAPGSRRPRTPVQGACERVPSANRDPSRGKPRAEEGPRDENRADLEHHHHHH | not soluble
19 | MSGSDRGDRLYDVLGVTRDATVQEIKTAYRKLALKHHPDKYVDQDSKEVNEIKFKEITAAYEILSDPEKKSHYDLYGDDNGAASSGG | not soluble
20 | MGSDKIHHHHHHMNETNFDWDDLRLFLAVAREGGLAAAAASTGKSAPTLGRRMLNLERRLGSDLFQRMARGYALTEDGQHLLAKAARLESLVLPITAIDPEQAIPVVKVSAGSWVTHLLCANVSEIIGSDRIRLRFIASDDVADIGRREALIGIRNHRPEGSGLAGRRITRVRFAVYARNRKVNTWARVIATTPSAKWVREEARTADAIEVTSPRNALDLALAGTARVVLPTFIGSQFDTLKQVSPLIGDLEHEQWLVTHHEDRFVPQVRKVIDRIYLILKQAKTSS | not soluble
21 | MSLSKLKVSVFSKHLQFLQGEELAKATAAIGFDGVDLAVRKGGHVEPATVAKDLPALVAILRKNGLEVPMITTDIADTDTPFTEDLLKAASALGIRYYRFGAYKWSAEKPYAAQLEIMKPKLAKLAALNAKYQMCAMYHTHSGVGVVGASIWDLWYMMKDLDPKLMGMNYDVGHATIEGGLGGWIDSFKIAGNYVRGIAVKDFAWEKDPKGGQRSQWKPIGEGTVKFPQFYGMVAATDFAGPFQMHFEYPLGGANNGTRTLTVPKEEVHAAMKKDLDKTRAMLAQAGLEGHHHHHH | not soluble
22 | MSLSIQSGEILETVKMVADQNFDVRTITIGIDLHDCISSDINVLNQNIYNKITTVGKDLVTTAKYLSAKYGVPIVNQRISVTPIAQIAAATHADSYVSVAQTLDKAAKAIGVSFIGGFSALVQKGMSPSDEVLIRSIPEAMKTTDIVCSSINIGSTRAGINMDAVKLAGETVKRTAEITPEGFGCAKIVVFCNAVEDNPFMAGAFHGSGEADAVINVGVSGPGVVKAALENSDATTLTEVAEVVKKTAFKITRVGELIGREASKMLNIPFGILDLSLAPTPAVGDSVARILEEMGLSVCGTHGTTAALALLNDAVKKGGMMASSAVGGLSGAFIPVSEDEGMIAAAEAGVLTLDKLEAMTAVCSVGLDMIAVPGDTPAHTISGIIADEAAIGMINSKTTAVRIIPVTGKTVGDSVEFGGLLGYAPVMPVKEGSCEVFVNRGGRIPAPVQSMKNEGHHHHHH | soluble
23 | MRQIKVVLIGGGTGLSVMARGLREFPIDITAIVTVADNGGSTGKIRDEMDIPAPGDIRNVIAALSDSESVLSQLFQYRFEENQISGHSLGNLLIAGMTNITNDFGHAIKALSKILNIKGRVIPSTNTSVQLNAVMEDGEIVFGETNIPKKHKKIDRVFLEPNDVQPMEEAIDALREADLIVLGPGSLYTSVISNLCVNGISDALIHSDAPKLYVSNVMTQPGETDGYSVKDHIDAIHRQAGQPFIDYVICSTQTFNAQVLKKYEEKHSKPVEVNKAELEKESINVKTSSNLVEISENHLVRHNTKVLSTMIYDIALELISTIPFVPSDKRK | not soluble
24 | MGSDKIHHHHHHMNTLASIQELARAIRNMIRTGIVVETDLDAGRCRVQTGGIYTDWLQWLTHRAGRSRTWWAPSIGEQVMILAVGGELDTAFVLPGIYSDDNPAPSASADAWHVEFPDGAVMSYEPETGALTVTGIKTADVTASDSVAVSVPVVLVKAETRVTLDTPEVVCTNKLTTGTLEVKQGGKMSGDIEHSGGAFTSNGVQVDKHGHGGIRRGDEWTEGTQ | not soluble
